Substitutions are numbered along the chain they refer to.

One test addresses T1, NKp30 on KHYG-1 NK cells (human, UniProt O14931 19-201).
T1 construct: whole, on cells; also called NK cell line KHYG-1; NKp30+ KHYG-1 cells
T1 sequence (looked up): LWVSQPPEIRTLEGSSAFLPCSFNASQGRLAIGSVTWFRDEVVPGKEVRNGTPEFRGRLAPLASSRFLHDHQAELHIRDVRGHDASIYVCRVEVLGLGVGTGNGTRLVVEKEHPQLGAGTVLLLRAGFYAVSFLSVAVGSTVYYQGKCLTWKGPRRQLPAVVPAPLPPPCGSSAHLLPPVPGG
As to the kind of experiment: flow cytometry on NKp30+ KHYG-1 cells, antibody 200 nM to 0.003387 nM. As to the method: (§1) A flow cytometry-based assay was performed to check binding of anti-TRBC2x NKp30 to either TRBC2+ HPB-ALL cells, TRBC1+ Jurkat cells or NKp30+ KHYG-1 cells.
(§2) Each antibody was diluted to 200 nM and then serially diluted three-fold down to 0.003387 nM. Antibodies were incubated with each cell line for 1 hour at 4C. […] Zombie UV (BioLegend 423107) viability dye was added to the cells 1:1000 and incubated for 30 minutes at room temperature. Cells were analyzed on the CytoFlex LX flow cytometer.
In general terms: In flow cytometry, cells or beads pass a laser one at a time.

Test [1] addresses T2, TRBC2 on TRBC2+ cell lines (HPB-ALL; HH; HDMAR2) (human, UniProt A0A5B9 1-178).
T2 construct: whole, on cells; also called TRBC2+ HPB-ALL cells
As to the kind of experiment: flow cytometry on TRBC2+ HPB-ALL cells, antibody 200 nM to 0.003387 nM. As to the method:
as §1, §2

Test [2] concerns the target T3, human TRBC2 (construct not named) (human, UniProt A0A5B9 1-129, limits assumed).
T3 construct: also called hTRBC2
The test is described as follows: SPR, bispecific captured via anti-human Fc on CM5, hTRBC2 from 125 nM in two-fold dilutions, 1:1 fit. As for the experimental part: (§3) In this example, surface plasmon resonance assay was performed to check binding of anti-TRBC2xNKp30 bispecific antibodies (bispecifics) to either hTRBC2, hTRBC1 or hNKp30 proteins. […] The bispecific antibodies may or may not have an N297A mutation in their Fc regions. FIG. 31B represents a design for monovalent TRBC2 control. Briefly, TRBC2xNKp30 bispecifics at 2 ug/mL were immobilized on CM5 chip via anti-human Fc antibody to 70 RU. Human TRBC2 or human TRBC1 antigens were diluted to 125 nM and then serially diluted two-fold. Association was 300 seconds and dissociation were 600 seconds. This assay was run in 1 x HBS-EP+ Buffer pH 7.4 and 25 C. The data was fit using a 1:1 binding model assess binding of bispecifics to NKp30, human NKp30 at 2 ug/mL was immobilized on CM5 chip via Anti-mouse Fc antibody to 70 RU. TRBC2xNKp30 bispecifics were diluted to 50 nM and then serially diluted two-fold. Association was 300 seconds and dissociation were 600 seconds. This assay was run in 1 x HBS-EP+ Buffer pH 7.4 and 25 C. The data was fit using a 1:1 binding model.

Test [3] deals with T4, human NKp30 (construct not named) (human, UniProt O14931 19-135, limits assumed).
T4 construct: also called hNKp30
T4 sequence (looked up): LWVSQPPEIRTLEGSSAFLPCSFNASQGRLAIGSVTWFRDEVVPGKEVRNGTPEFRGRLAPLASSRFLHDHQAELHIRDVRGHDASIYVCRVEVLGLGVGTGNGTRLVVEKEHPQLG
As to the kind of experiment: SPR, human NKp30 captured via anti-mouse Fc on CM5, bispecific from 50 nM in two-fold dilutions, 1:1 fit. As to the method: as §3
Background: Surface plasmon resonance follows binding to a sensor surface in real time, without labels.

The target of test [4] is T5, human TRBC1 (construct not named) (human, UniProt P01850 1-129, limits assumed).
T5 construct: also called hTRBC1
T5 sequence (P01850 1-129 limits assumed): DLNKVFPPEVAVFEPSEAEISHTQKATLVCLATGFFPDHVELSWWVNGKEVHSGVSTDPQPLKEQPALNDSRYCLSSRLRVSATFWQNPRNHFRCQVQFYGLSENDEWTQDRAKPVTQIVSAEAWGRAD
As to the kind of experiment: method not stated.

T3 sequence (A0A5B9 1-129 limits assumed): as the sequence (P01850 1-129 limits assumed) above, with N3K, K4N, E9K, F36Y counted along it
T2 sequence (A0A5B9 whole entry): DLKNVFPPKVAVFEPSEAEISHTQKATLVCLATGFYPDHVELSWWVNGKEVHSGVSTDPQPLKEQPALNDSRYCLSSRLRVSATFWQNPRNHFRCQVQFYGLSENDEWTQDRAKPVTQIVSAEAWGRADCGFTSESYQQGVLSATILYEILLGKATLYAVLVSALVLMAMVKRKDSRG

B1: BKM0098 (anti-TRBC2/NKp30 bispecific antibody) (bispecific antibody, human IgG1, kappa, N297A)
heavy: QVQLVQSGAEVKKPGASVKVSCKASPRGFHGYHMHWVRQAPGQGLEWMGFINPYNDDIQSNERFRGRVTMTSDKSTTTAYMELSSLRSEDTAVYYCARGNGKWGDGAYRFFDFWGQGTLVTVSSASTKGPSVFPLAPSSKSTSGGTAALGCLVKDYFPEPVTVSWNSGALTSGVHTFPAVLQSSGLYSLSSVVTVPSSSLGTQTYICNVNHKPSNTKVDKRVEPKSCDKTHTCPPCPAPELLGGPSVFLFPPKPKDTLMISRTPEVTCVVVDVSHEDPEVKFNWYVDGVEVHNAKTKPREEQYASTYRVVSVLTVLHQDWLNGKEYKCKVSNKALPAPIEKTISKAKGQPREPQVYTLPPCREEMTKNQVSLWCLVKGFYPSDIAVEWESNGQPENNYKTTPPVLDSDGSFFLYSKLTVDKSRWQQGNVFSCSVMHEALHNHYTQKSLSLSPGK
light: DVVMTQSPLSLPVTPGEPASISCRSSQNLVHSNGRTYLQWYLQKPGQSPQLLIYRVSNRFPGVPDRFSGSGSGTDFTLKISRVEAEDVGVYFCSQSTHVPYTFGGGTKVEIKRTVAAPSVFIFPPSDEQLKSGTASVVCLLNNFYPREAKVQWKVDNALQSGNSQESVTEQDSKDSTYSLSSTLTLSKADYEKHKVYACEVTHQGLSSPVTKSFNRGEC
scFv: EIQLLESGGGLVQPGGSLRLSCAVSGFSITTTGYHWNWVRQAPGKGLEWVGYIYSSGSTSYNPSLKSRFTISRDTSKNTFYLQMNSLRAEDTAVYYCARGDWHYFDYWGQGTMVTVSSGGGGSGGGGSGGGGSGGGGSDSVTTQSPLSLPVTLGQPASISCSGEKLSDKYVHWYQQRPGQSPRMLIYENDRRPSGVPDRFSGSNSGNDATLKISRVEAEDVGVYFCQFWDSTNSAVFGGGTKVEIKDKTHTCPPCPAPELLGGPSVFLFPPKPKDTLMISRTPEVTCVVVDVSHEDPEVKFNWYVDGVEVHNAKTKPREEQYASTYRVVSVLTVLHQDWLNGKEYKCKVSNKALPAPIEKTISKAKGQPREPQVCTLPPSREEMTKNQVSLSCAVKGFYPSDIAVEWESNGQPENNYKTTPPVLDSDGSFFLVSKLTVDKSRWQQGNVFSCSVMHEALHNHYTQKSLSLSPGK
notes: Anti-TRBC2 Fab-Fc and anti-NKp30 scFv-Fc; also called Anti-TRBC2-NKp30-BKM0098; Parental Bispecific
In the case of B1, the EC50 (with NKp30 on KHYG-1 NK cells; in test [1]) was 4 nM throughout. Also, the Kd (commonly a measure of binding affinity in units of concentration) in test [2] is 89 nM; in test [3] it was 0.63 nM.

B2: BKM0312 (anti-TRBC2/NKp30 bispecific antibody) (bispecific antibody)
chain 1: not shown
chain 2: B1 light with P15L, E17Q, Q27K, L42Q, K44R, Q50R, H98R, V99E
chain 3: B1 scFv
Consider B2, for which the EC50 (with NKp30 on KHYG-1 NK cells; in test [1]) was 1.1 nM throughout. Also, the Kd is 31 nM in test [2] and 0.54 nM in test [3].

B3: BKM0240 (anti-TRBC2/NKp30 bispecific antibody) (bispecific antibody, human IgG1, kappa, N297A)
heavy: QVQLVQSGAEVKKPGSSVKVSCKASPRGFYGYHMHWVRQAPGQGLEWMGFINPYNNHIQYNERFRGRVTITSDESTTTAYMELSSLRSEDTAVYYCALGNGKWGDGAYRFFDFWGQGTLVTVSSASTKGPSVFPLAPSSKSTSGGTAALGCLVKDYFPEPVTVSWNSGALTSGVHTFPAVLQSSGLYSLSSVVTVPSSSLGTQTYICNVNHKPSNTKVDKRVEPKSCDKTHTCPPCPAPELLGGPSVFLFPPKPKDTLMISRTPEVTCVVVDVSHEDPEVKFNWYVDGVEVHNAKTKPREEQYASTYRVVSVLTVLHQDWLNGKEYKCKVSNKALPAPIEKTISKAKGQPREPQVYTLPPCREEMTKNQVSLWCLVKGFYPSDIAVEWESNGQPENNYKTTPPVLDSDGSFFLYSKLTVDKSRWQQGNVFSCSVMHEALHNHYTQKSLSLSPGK
light: B1 light with P15L, E17Q, Q27K, L42Q, K44R, Q50R, H98R, V99E
scFv: B1 scFv
notes: also called Parental Bispecific
As to B3, the EC50 (with NKp30 on KHYG-1 NK cells; in test [1]) was 1.5 nM in each case. Also, the figures for the Kd in test [2] and in test [3] were 28 nM and 0.58 nM, respectively.

B4: BKM0311 (anti-TRBC2/NKp30 bispecific antibody) (bispecific antibody, human IgG1, kappa, N297A)
heavy: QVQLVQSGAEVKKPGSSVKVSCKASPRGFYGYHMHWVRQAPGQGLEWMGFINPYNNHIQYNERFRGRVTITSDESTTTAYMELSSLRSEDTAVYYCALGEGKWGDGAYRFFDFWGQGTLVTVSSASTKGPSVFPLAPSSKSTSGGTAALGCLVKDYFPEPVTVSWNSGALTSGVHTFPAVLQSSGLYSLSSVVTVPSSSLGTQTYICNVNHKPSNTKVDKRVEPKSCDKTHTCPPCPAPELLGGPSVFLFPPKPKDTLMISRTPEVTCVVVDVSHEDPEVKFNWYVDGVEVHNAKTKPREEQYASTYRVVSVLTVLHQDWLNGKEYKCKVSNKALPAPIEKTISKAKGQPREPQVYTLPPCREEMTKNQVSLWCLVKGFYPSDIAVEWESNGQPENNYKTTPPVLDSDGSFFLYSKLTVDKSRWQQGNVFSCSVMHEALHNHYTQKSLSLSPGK
light: B1 light with P15L, E17Q, Q27K, L42Q, K44R, Q50R, H98R, V99E
scFv: B1 scFv
With B4, the EC50 (with NKp30 on KHYG-1 NK cells; in test [1]) was 0.33 nM each time. Besides, the Kd in test [2] came out at 9.2 nM; in test [3], 0.63 nM.

B5: BIM0460 (Example 8; format not stated) (antibody, V domains shown)
VH: QVQLVQSGAEVKKPGSSVKVSCKASGYTFTGYVMHWVRQAPGQGLEWMGFINPYNDDIQSNERFRGRVTITSDKSTTTAYMELSSLRSEDTAVYYCARGAGYNFDGAYRFFDFWGQGTLVTVSS
VL: DVVMTQSPLSLPVTLGQPASISCRSSQRLVHSNGNTYLHWYQQRPGQSPRLLIYRVSNRFPGVPDRFSGSGSGTDFTLKISRVEAEDVGVYFCSQSTHVPYTFGGGTKVEIK
notes: Humanized JOVI.1 variant
As to B5, binding in test [4] was characterised by a dissociation constant (Kd) of 17 nM.

B6: BJM0578 (Example 8; format not stated) (antibody, V domains shown)
VH: QVQLVQSGAEVKKPGSSVKVSCKASGYTFTGYVMHWVRQAPGQGLEWMGFIIPIFGTANYAQKFQGRVTITSDKSTTTAYMELSSLRSEDTAVYYCARGAGYNFDGAYRFFDFWGQGTLVTVSS
VL: B5 VL
notes: Germlined variant of BIM0460
As to B6, the Kd in test [4] stood at 110 nM.

(Values after US20230357395A1 (MARENGO THERAPEUTICS, published 2023).)
